{
  "source": "patent US20260166115A1",
  "about": "“POLYUNSATURATED FATTY ACID-BOUND ALPHA FETOPROTEIN PROMOTES IMMUNE SUPPRESSION BY ALTERING HUMAN DENDRITIC CELL METABOLISM” (The Regents of the University of California, priority 2022, published 2026)",
  "molecules": {"B1": {"name": "tAFP: tumor-derived alpha fetoprotein, SEQ ID NO: 1; commercially available (Bio-Rad) (protein, listed as Homo sapiens)", "chain": "MKWVESIFLIFLLNFTESRTLHRNEYGIASILDSYQCTAEISLADLATIFFAQFVQEATYKEVSKMVKDALTAIEKPTGDEQSSGCLENQLPAFLEELCHEKEILEKYGHSDCCSQSEEGRHNCFLAHKKPTPASIPLFQVPEPVTSCEAYEEDRETFMNKFIYEIARRHPFLYAPTILLWAARYDKIIPSCCKAENAVECFQTKAATVTKELRESSLLNQHACAVMKNFGTRTFQAITVTKLSQKFTKVNFTEIQKLVLDVAHVHEHCCRGDVLDCLQDGEKIMSYICSQQDTLSNKITECCKLTTLERGQCIIHAENDEKPEGLSPNLNRFLGDRDFNQFSSGEKNIFLASFVHEYSRRHPQLAVSVILRVAKGYQELLEKCFQTENPLECQDKGEEELQKYIQESQALAKRSCGLFQKLGEYYLQNAFLVAYTKKAPQLTSSELMAITRKMAATAATCCQLSEDKLLACGEGAADIIIGHLCIRHEMTPVNPGVGQCCTSSYANRRPCFSSLVVDETYVPPAFSDDKFIFHKDLCQAQGVALQTMKQEFLINLVKQKPQITEEQLEAVIADFSGLLEKCCQGQEQEVCFAEEGQKLISKTRAALGV"}},
  "key": {"[1]": {"system": "monocyte-derived dendritic cells (DCs)", "assay": "Glucose and lactate measurements in DC cultures", "type": "cell-based, human", "text": "(§1) DCs were differentiated in vitro similarly as previously described (Pardee, A. D., Shi, J. & Butterfield, L. H. Tumor-Derived α-Fetoprotein Impairs the Differentiation and T Cell Stimulatory Activity of Human Dendritic Cells. J Immunol. 193, 5723-5732 (2014)). In brief, cryopreserved PBMC were thawed and CD14*monocytes were magnetically labeled using CD14 MicroBeads (Miltenyi, Cat #130-050-201) and isolated by LS columns (Miltenyi, Cat #130-042-401) per the manufacturer instructions. Viable eluted cells were enumerated using trypan blue on a Nexcelom Cellometer Spectrum. To generate iDCs, monocytes were stimulated for 5 days in the presence of 800 IU/mL of rGM-CSF (Miltenyi, Cat #130-093-862) and 500 IU/mL of rIL-4 (Miltenyi, Cat #130-095-373) as well as OVA, nAFP, or tAFP in CellGenix® GMP DC media (Cat #20801-0500) 37° C. at 5% CO2. Lastly, we performed an additional 24-hour stimulation with 1000 IU/mL of rIFN-γ (Peprotech, Cat #300-02) and 250 ng/mL of LPS (Sigma Aldrich, Cat #L2630-10MG) to produce mDCs. To harvest cells, DC were detached using TrypLE™ Select (Gibco, Cat #12563011) for 15 minutes at 37° C. and then washed several times with cold PBS.\nGlucose and lactate were measured by applying approximately 5 μL of supernatant to Clarity BG1000 Blood Glucose strips (Cat #75840-798) and meter (Cat #75840-800) system or the Lactate Plus strips (Nova Biomedical©, Cat #40813) and meter version 2 (Nova Biomedical©, Cat #62624) system. Each meter was quality checked with control glucose and lactate solutions and CellGenix™ media before each experiment."}, "[2]": {"system": "dendritic cells (DCs)", "details": "tAFP-treated DCs; cited from earlier work"}, "[3]": {"system": "iDCs", "assay": "Intracellular Zn measurement by flow cytometry", "type": "cell-based, human", "details": "P=0.0293 vs nAFP, P=0.0228 vs OVA", "procedure": "Intracellular Zn was quantified by flow cytometry using the Zinc Assay Kit (Cell-based) (Abcam, Cat #ab241014). Monocytes were differentiated to iDCs as described above in the presence of OVA, nAFP, tAFP, or ZnSO4. […] Cells were stained with LD Aqua for 10 minutes at RT. Cells were washed in 1× Assay Buffer, then stained in 100 μL of Assay Buffer+0.2 μL of Zn Probe for 30 minutes at 37° C. Cells were then washed twice with 1× Assay buffer then stained with HLA-DR-APC-H7 (BD, Clone: GF6-6, Cat #561358, Lot #0023290, 0339025), CD86-BV785 (BioLegend, Clone: IT2.2, Cat #305441, Lot #B277560), CD206 PE-Cy7 (Biolegend, Clone: 15-2, Cat #321123, Lot #B331254), and CD14-BUV805 (BD, Clone: M5E2, Cat #612903, Lot #0297714), in Brilliant Stain Buffer (BD Horizon, Cat #566349, Lot #0121427) for 20 minutes at 4° C. Cells were washed twice in FACS Buffer and fixed in 1% paraformaldehyde (Thermo Scientific, Cat #J19943-K2, Lot #195273, diluted in PBS) for at least 30 minutes before acquisition on a BD LSRFortessam X-50."}, "[4]": {"system": "monocyte-derived dendritic cells (DCs)", "assay": "SCENITH single-cell energetic metabolism profiling of treated DCs", "type": "cell-based, human", "details": "mDC HLA-DR+, CD206+, CD86+", "text": "as §1\n(§2) SCENITH was performed as described in (Arguello et al., 2020). SCENITH™ reagents kit (inhibitors, puromycin and antibodies) were obtained from www.scenith.com/try-it and used according to the provided protocol for in-vitro derived myeloid cells. Briefly, control and tol-moDC cultures at desired timepoints, were treated for 18 minutes with Control (DMSO), 2-Deoxy-Glucose (2-DG; 100 mM), Oligomycin (0; 1 μM), a combination of 2DG and Oligomycin (DGO) or Harringtonine (H; 2 μg/mL). Following metabolic inhibitors, Puromycin (final concentration 10 μg/mL) was added to cultures for 17 min. After puromycin treatment, cells were detached from wells using TypLE Select (Fisher Scientific, 505914419), washed in cold PBS and stained with a combination of Human TureStain FcX (Biolegend, 422301) and fluorescent cell viability dye (Biolegend, 423105) for 10 min 4° C. in PBS. Following PBS wash step, primary antibodies against surface markers were incubated for 25 min at 4° C. in Brilliant Stain Buffer (BD Biosciences, 563794). Next cells were fixed and permeabilized using True-Nuclear Transcription Factor Buffer Set (Biolegend, 424401) as per manufacturer instructions. Intracellular staining of puromycin and protein targets was performed for 1 h in diluted (10×) permeabilization buffer at 4° C. Finally, data acquisition was performed using the Cytek Aurora flow cytometer. Primary conjugated antibody information used in SCENITH panel is listed in supplementary table 1. All antibodies were titrated to reduce spillover and increase resolution using single stained moDC (generated as described above) samples. Unstained cell controls used for autofluorescence extraction were generated for each time point, culture conditions (control, vitd3-tol-moDC and dexa-vitd3-tol-moDC) and metabolic inhibitor treatments (C, 2DG, O, DGO). Samples were unmixed using reference controls generated in combination with stained Ultracomp beads (Fisher Scientific, 01-2222-41) and stained cells using the SpectroFlo Software v2.2.0.1. The unmixed FCS files were used for data processing and analysis using FlowJo (BD, version 10.7.1). Manually gated CD14-HLA-DR*CD86+ cells were used for downstream analysis. gMFI expression values were imported into R environment for correlation and heatmap analysis using the below described R packages."}, "[5]": {"system": "monocyte-derived dendritic cells (DCs)", "assay": "Flow cytometry phenotype of in vitro differentiated DCs treated with OVA, nAFP or tAFP", "type": "cell-based, human", "text": "as §1, §2"}, "[6]": {"system": "mDCs generated in vitro", "assay": "scMEP single-cell metabolic regulome profiling by CyTOF", "type": "cell-based, human", "procedure": "scMEP analysis was performed as recently described (Hartmann et al., 2021). In short, antibodies targeting metabolic features were conjugated in-house using an optimized conjugation protocol (Hartmann et al., 2019) and validated on multiple sample types. Cells were prepared for scMEP analysis by incubation with small molecules to be able to assess biosynthesis rates of DNA, RNA and protein, cisplatin-based live/dead staining, PFA-based cell fixation and cryopreservation (dx.doi.org/10.17504/protocols.io.bkwkkxcw). Next, cells were stained with metabolic antibodies in a procedure that includes surface staining for 30 min at RT, PFA-fixation for 10 min at RT, MeOH-based permeabilization for 10 min on ice, intracellular staining for 1 h at RT and DNA intercalation (dx.doi.org/10.17504/protocols.io.bntnmeme). Finally, cells were acquired on a CyTOF2 mass cytometer (Fluidigm). Protein targets and antibody information used in scMEP are listed in supplementary table 2. Raw mass spectrometry data were pre-processed, de-barcoded and imported into R environment using the flowCore package (version 2.0.1) (Hahne et al., 2009). Values were arcsin h transformed (cofactor 5) and normalized (Hartmann et al., 2021) for downstream analyses based on previously reported workflow (Nowicka et al., 2017)."}, "[7]": {"system": "iDCs differentiated from monocytes", "assay": "Microarray gene expression and g:Profiler pathway analysis of treated DCs", "type": "cell-based, human", "text": "OVA, nAFP, and tAFP-treated DC were lysed, and total mRNA was obtained for microarray (Affymetrix HG-U133A). DE genes were uploaded in g:Profiler in R Studio for pathway analysis and visualization (Raudvere, U. et al. g:Profiler: a web server for functional enrichment analysis and conversions of gene lists (2019 update). Nucleic Acids Res. 47, W191-W198 (2019))."}},
  "data": [
    {"molecule": "B1", "values": [
      {"measurement": "intracellular glucose", "setting": "[1]", "value": "increase"},
      {"measurement": "glucose uptake", "setting": "[1]; DC", "value": "take up more glucose"},
      {"measurement": "glucose in the culture supernatants", "setting": "[1]; day 6", "value": "significantly less"},
      {"measurement": "lactate secreted, relative to OVA-treated DCs", "setting": "[1]; media of treated DCs, all HDs", "value": "approximately twice"},
      {"measurement": "mitochondrial mass", "setting": "[2]", "value": "decreased"},
      {"measurement": "increase in Zn MFI compared to nAFP or OVA-treated iDCs", "setting": "[3]", "value": "~30", "unit": "%"},
      {"measurement": "fatty acid and glutaminolysis (FAAO) (SCENITH)", "setting": "[4]", "value": "reduction"},
      {"measurement": "glycolysis (SCENITH)", "setting": "[4]", "value": "dramatic increase"},
      {"measurement": "mitochondrial dependency (SCENITH)", "setting": "[4]", "value": "reduction"},
      {"measurement": "expression of pAMPK", "setting": "[5]", "value": "decreased expression"},
      {"measurement": "expression of the fatty acid transporter CD36", "setting": "[5]", "value": "decline"},
      {"measurement": "co-expression of multiple activation markers (HLA-DR, CD206, CD86, ICOSLG/CD275)", "setting": "[5]; Boolean analysis", "value": "decreased co-expression"},
      {"measurement": "DC CD86 expression", "setting": "[5]; tAFP-treated DC", "value": "trend for reduced"},
      {"measurement": "DC CD206 expression", "setting": "[5]; tAFP-treated DC", "value": "limited"},
      {"measurement": "DC HLA-DR expression", "setting": "[5]; tAFP-treated DC", "value": "limited"},
      {"measurement": "ASCT2", "setting": "[6]", "value": "unchanged"},
      {"measurement": "ETC/TCA parameters ATP5A, CS and SDHA", "setting": "[6]", "value": "lower"},
      {"measurement": "GLS", "setting": "[6]", "value": "tended to be lower"},
      {"measurement": "amino acid pathway proteins CD98 and G6PD", "setting": "[6]", "value": "significantly decreased"},
      {"measurement": "expression of DC markers CD206, PD-L1, CD11b, CD1c, HLA-DR, CD86 and CD11c", "setting": "[6]", "value": "reduced expression"},
      {"measurement": "glycolysis proteins (GLUT1, GLUT3, LDHA, ENO1, GAPDH, and MTC1)", "setting": "[6]", "value": "modest differences that were not statistically significant"},
      {"measurement": "levels of cytochrome C (CytC)", "setting": "[6]", "value": "elevated"},
      {"measurement": "FAO or FAS proteins CD36, CDPT1A, HADHA, and ACLY", "setting": "[6]; mDCs", "value": "decreased"},
      {"measurement": "ACS gene", "setting": "[7]", "value": "did not reach statistical significance"},
      {"measurement": "SLC2A3 (GLUT3) gene expression", "setting": "[7]", "value": "increase"},
      {"measurement": "gene expression of CPT1A", "setting": "[7]", "value": "increased"},
      {"measurement": "genes involved in fatty acid metabolism (PDH, ACLY, ACC, FASN, LPL, CD36, CACT)", "setting": "[7]", "value": "downregulation"},
      {"measurement": "pathways associated with lipid metabolism", "setting": "[7]; tAFP compared to nAFP", "value": "significantly downregulated"},
      {"measurement": "upregulated gene pathways", "setting": "[7]; tAFP compared to nAFP", "value": "stress response to metal ions, particularly zinc"}
    ]}
  ]
}
